Data published in patent publication EP0574621A1.
Read-outs that look alike come from different tables or passages of the source.

Tests used:
von Willebrand factor [1] = target: von Willebrand factor (UniProt P04275); assay: cell-based or functional assay
von Willebrand factor [2] = target: von Willebrand factor (UniProt P04275)
von Willebrand factor [3] = target: von Willebrand factor (UniProt P04275); assay: ratio of IC50 values from the competitive radiolabelled botrocetin binding assay
von Willebrand factor [4] = target: von Willebrand factor (UniProt P04275); assay: competitive inhibition of 125I-two-chain botrocetin binding to vWF in solution by unlabeled two-chain botrocetin; vWF captured on 2-2-9 IgG coated wells

Row | Substance | Half maximal binding capacity (BM50) (von Willebrand factor [1]) [µg/mL] | concentration giving maximal vWF binding to glycoprotein Ib (von Willebrand factor [1]) [µg/mL] | minimum concentration necessary to induce vWF binding to glycoprotein Ib (von Willebrand factor [1]) [µg/mL] | IC50 (von Willebrand factor [2]) [mg/L] | fold greater activity (BM50) than one-chain botrocetin (von Willebrand factor [1]) [fold] | fold higher affinity than one-chain botrocetin (von Willebrand factor [3]) [fold] | IC50 (von Willebrand factor [4]) [mg/L]
1 | one-chain botrocetin | 5.5 | 17 | 1 | 55 | – | – | –
2 | two-chain botrocetin | 0.16 | – | – | – | 34 | 32 | 1.7
